Laboratory results taken from patent US20100092954A1, “Method for Determining the Genetic Basis for Physiological Changes in Organisms” (priority 2006, published 2010).

Tested on: glycerol kinase (glpK)
Assay: Biochemical measurements of mutant glycerol kinase (partially purified protein): reaction rate and inhibition by FBP
Parameters: species or system Escherichia coli
Conditions: partially purified protein from cells expressing the enzyme
From the text: All clones had mutations in the gene for glycerol kinase (glpK), which catalyzes the first step in glycerol catabolism. This protein is subject to inhibition by fructose-1,6-bisphosphate (FBP) and phosphorylated enzyme IIA^Glc. […] Since all glycerol-adapted populations have mutations in glpK, rapid growth on glycerol can be partially attributed to altered kinetic and regulatory properties of glycerol kinase. Evidently the rate of glycerol phosphorylation catalyzed by GlpK is rate-limiting to the growth of WT E. coli MG 1655. The glycerol catabolic pathway generates the glycolytic intermediate dihydroxyacetone phosphate, which can be converted to methylglyoxal, a toxic metabolite when present at high concentrations. It is noteworthy that no mutations were detected in any genes relating to methylglyoxal metabolism.

B1: WT: wild-type E. coli MG1655 glycerol kinase (GlpK) (protein, UniProt P0A6F3 2-502, looked up)
Glycerol kinase: TEKKYIVALDQGTTSSRAVVMDHDANIISVSQREFEQIYPKPGWVEHDPMEIWATQSSTLVEVLAKADISSDQIAAIGITNQRETTIVWEKETGKPIYNAIVWQCRRTAEICEHLKRDGLEDYIRSNTGLVIDPYFSGTKVKWILDHVEGSRERARRGELLFGTVDTWLIWKMTQGRVHVTDYTNASRTMLFNIHTLDWDDKMLEVLDIPREMLPEVRRSSEVYGQTNIGGKGGTRIPISGIAGDQQAALFGQLCVKEGMAKNTYGTGCFMLMNTGEKAVKSENGLLTTIACGPTGEVNYALEGAVFMAGASIQWLRDEMKLINDAYDSEYFATKVQNTNGVYVVPAFTGLGAPYWDPYARGAIFGLTRGVNANHIIRATLESIAYQTRDVLEAMQADSGIRLHALRVDGGAVANNFLMQFQSDILGTRVERPEVREVTALGAAYLAGLAVGFWQNLDELQEKAVIEREFRPGIETTERNYRYAGWKKAVKRAMAWEEHDE
Vmax: 15.8 μmol glycerol/min/mg
